Experiment: label from the status in PepcDB records
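Note: failed if final PepcDB status was selected cloned or expressed and not failed if soluble or beyond.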

For “MIKVGVIGFGTVGQGVVESLVQLERGLRKEVTLEMLLVTNRRKHEHSEQYALVTDDWETFAARYYDVVFEAAGGIEPVYDYVRFFLKKGVPVVTANKKLVAERGEELERLAAENDTYLCYEAAVAGGIPILNAIKGTLATTSFTSVAGILNGTTNYILTGMIEQNRPFQDMLEEAQAKGYAEADPTDDIEGYDAWYKIRILARLCFGIWPNRDDISRSGLHDVLDWHVELGQSLGLTLKLDGRASVKNNTIIGSVAPAFFTNDHPFSTVYGVTNAVVLEGKAIERLLFTGPGAGKEATANSMVEDYLFHERYKGERQPMLIKEKEQNRIANVLVMVAAHEKKEAEKVVEHLPCQRINTFAADEGEAWWLKVYEDVIPFISKQLGLSLYRVYGAFEKQLVTTNMHHPSSIDETLEQKA”, which protein production is on record?
Its protein production is “failed”.

Which protein production does the source give for “MIKYILGIVIFIAIVLVAITIGANNDQIITFNYIVAESQFQLSSLVAILFGLGLILGWLITAFFYIKLKLKNMALARQVKRQTLQINELTTTRDKVV” here?
Its protein production is “failed”.

For “MIKYLIEKEFKQLLRNSFLPRLIFIFPCMIMLLMPWAANLEIKNIRMNIIDNDHSVISRRLVDKITASTYFQTTALPDSYEKGMEAIEAGTADLLLEIPRGFEKDWVNGGAANVLLAVNAVNGTKGGLGSSYLSAIVNDYGEELRTESGTTSFSADGNLPRIDILTQNLFNARLDYKLFMVPALMVMLLTMLCGFLPALNIVGEKEAGTIEQINVTPVGKFTFILAKLIPYWLIGFVVLTLCFVLAWTLYGIFPVGHFWVIYCFSIVFVLAVSGLGLVISNHSATMQQAMFVMWFCMLILILMSGLFTPIRSMPEWAQWITMLNPLKYFMQVMRMVYLKGSGFIDLLPQLGALLAFALLFNVWAVKSYRKSG”, which protein production is on record?
Its protein production is “failed”.

With “MILEDLNQLPAAEASHTFMQCSASAWVKKMVTARPFSSELAIKKAADDAWQGLTEQDYFEAFEGHPKIGDVSSLRAKYANTKELAGNEQGLVKEANDDVLEVLSQGNSDYEKKFGFIFIVCATGKSAKQMSDLLQARLPNNKTQELVNAAEEQRKIFQLRIDKALAEGLEHHHHHH” as the sequence, how does the protein production read?
Its protein production is “failed”.

For “MILGIDVGGTSVKFGLVTPEGEIQNATRFMTADWVNGIGFVESMKLEIGNFLKQYPIVKGVGIGWPGLVSLDRTKVILLPNIPSVVNVPIVEILRSEFPHIHFKIENDAKCAALGEYYFGENKRMQTFILLALGTGVGSGVMMNGKLFIGGRGNGTEVGHMLTTRGKSLENQVGINHLIAYTHEQLALDVAKKSSLHTIAELSPKVIADHAAQGDALALAVWADIGTIIGESLVNIVRVMDLNNILLGGGISGAFDYFVPNLKKAMLEHLPTYYTDDMYIGKATLENDAGLLGAAGLIMEAI”, which protein production is on record?
The protein production was “not failed”.

Which protein production does the source give for “MILIRNVRLVDARGERGPADVLIGEGRILSLEGGEAKQVVDGTGCFLAPGFLDLHAHLREPGEEVKEDLFSGLLAAVRGGYTDLVSMPNTKPPVDTPEAVRALKEKAKALGLARLHPAAALTEKQEGKTLTPAGLLREAGAVLLTDDGRTNEDAGVLAAGLLMAAPLGLPVAVHAEDAGLRRNGVMNDGPLADLLGLPGNPPEAEAARIARDLEVLRYALRRSPATPRLHVQHLSTKRGLELVREAKRAGLPVTAEATPHHLTLTEEALRTFDPLFKVAPPLRGEEDREALLEGLLDGTLDAIATDHAPHTLAEKEKDLLRAPFGIPSLEVAFPLLYTELHLKRGFPLQRLVELFTDGPRRVLGLPPLHLEEGAEASLVLLSPKERPVDPSAFASKARYSPWAGWVLGGWPVLTLVAGRIVHEALK” here?
Its protein production is “not failed”.

With “MILKKEYSYESLRKKGAKKKKNFLCLQKYAMIYLVIRRYPYMSFGQKFKHFLAPLDEDDILEVEQDAEEEDAQTISQYEQQRSRMNKLPNDTKMVLFEPRSFDEADEIARRLKENKAAVVNLHKLQREYAQRTIDFLTGVIFALDGSIQKIGHNVILCTPNNVPVQGQITLDSGEDE” as the sequence, how does the protein production read?
Its protein production is “failed”.

With “MILLCFPGSEQGIGMHQFEFLGQLVLIGALAIVNILVFQKIRIPPVIGLIFTGIMLGPTGFHVIRNSGLISTLAEMGVVLLLFTIGLEFSADDLKKLRKIVLFGGTAQILLTGLVIAMFSYWLMDAIGKSVGSKEALVLGFSFSVSSTALCLKILSDRGELGFDHGKIALGILIFQDMAIVPLMFGFSFLTRGSSMPLESSFEEIALLLLFAIGMFGGFRLLMPKIVRIITELHAGEVLVLGALVLCFGAAWLASLIGLSLALGAFMAGMVIASTDGSHRISRTIDPFREAMTSIFFVSVGLLLDVNMIELPWLIAIALVVLVVKGLIMTGILMALGFSLRVSLMSGMVLAQIGEFSFVLAGTAKDAGLLDQHMFQSMLAVIVVTMIVTPALISAAPKFAAQVAPALGFMPLASKPEPKQPARAAAGPIVCRGEIHAAIIGFGLIGRNIAAVMNATNLNYTVLDTDRKTVKTMRRQGEPLFYGDCTERKSLLRIGVDHSRAVVICIPEIDAAIQCIRLVREINPGAFIIVRSRSLESTNRFYRAGADAAVTELFETSIQMFSELLKHFRVEPETILAQQEIIRREGGNIFRELVTETDGSGDDPAKKSQNGAGFVTSET” as the sequence, how does the protein production read?
Its protein production is “failed”.

With “MILLIMNTDDFQFFIRVADCGSLSKAAQEANISVSVASQRIQRLESTLKLRLFYRTTRKITLTDEGRKLLDFGRYWLDDFITLKDTLTARDKPLTGNLRVTTSATFGIKILTKVIANFALLHPTLNIYLDLNDQNIDLIEHGMDLAIRIGKLNDSSLVAKPLMTNHRLICAAPSYLNQYGMPHSIEDLQQHRCILQQHQNGLTDHWQLIDQKRTVVDVHLKAYFTTNSGEAIRQAALQGLGISNHSRWHVADDLEQGHLIELLPEYQIEPTTIYAVFPNRQFRQPKTELFLSYLQNYFKHEYPWNIRKN” as the sequence, how does the protein production read?
The protein production was “failed”.

Which protein production does the source give for “MILMHPKGLIKRDDIIYLSIFIVVFLIALRNYMISPPYTLGDTTILPSTNPGLYTPSATIQYYLSLLIGENNLIKTLNFLAFIIAPISIYFTLGRKGDFFKRLILPLIFTLNPISISIFYDGNGEGILLVYSLQPLVYYLTYKMLYEVKNRLKYLIYLSIVEVVGQIFFFQMFLFSLFFQLPFILLSIKERKYLFLVYPILADLLGFLSELSWEVYLYIGVVPSVLVSPSNTLVRLGLAYYSTIVSALLFAIVITTAFIYRNKYALATLTSVGILLVIYAILQNFRFDIPVISALLAAITTFQTKVYLLSFGLLDLSLFYLKRTREFIIPLLSLLLIVLLVNTGGLQATTYSIFSFKPQPMPSWYYELYDYLSQNNPNNVYSLATQYQYLQYLPGFSGFIYDTSFIHNLTNPFYGMKYLISTSQMNYTGLRLVKTFGPVLVYYNENFTGLVHYLNGSPVSNYSISDMEIRIYDGNPPFVVSLPYSEYWTSAENYNGFLELTTNISQNSLTSLVHELFFVSLFFLILPFILLILEKTPMKTLIVGR” here?
The protein production was “failed”.

For “MILNIVTIVSNFIFIALFYQLFVDLFDWSKMIKMSPQNISKLKVFILLISIVGGYVVSHFLLEVIQLCQSIFWALQ”, which protein production is on record?
The protein production was “failed”.

For “MILTPLALTPDHDIPGPVLTELTALYASHRAFHALSGDFPDPEDIRPEQVATALADELARPGAEVLLARDAGRLVGVAVTLARHPDPSDPDPWIGLLMVDAGLTRQGHGSRLVSLVEDRFRAAGRTAVRLAVLDGNTDALSFWTALGYRVLDHRRDLGAERPCTVLRRELASDKPRTPRRAARVAVLDPEGAVFLLRYDNVEVGVHWAMPGGGLEADENPREGALREVREETGWTDLEPGPLLCTWEHDFTHLSVGPVRQYEHIYVAQGPRREPTGPHLAAAHAADGILTWRWWSRAELAEAPEPLWPPDLALLLETFGGREG”, which protein production is on record?
Its protein production is “failed”.

Which protein production does the source give for “MILVFLDNMASIKDLNLIDEINDSSNLKLINDRLKLLFWTKNPEITDEENKKKYLDFLNEYWDTLRAYGAGDLELFPDKINYLTLILAANSKNHNIYIKKLAEKYAEKIPIEDGDSKINIWDFIDVAANSRNNDLHLERMILEGDTVLLNQKNQSIYNFEKIRLKLKNYVEKVRNAEMPKEIKDLLVKKSEEAFEGINIGYNIESGIKVSTKEYSGEIPEDWHPPCMREILNDILSGGSPSHYARRSFVVYRFVSQFDPNLRPIEEGIITNRSAQDIATEEQIERFLDEIINIFKSVGDFDVEKTKYYISHNIGYKVANHITHCEYCKNWRDDGGKGLGYYCRPDSTCSRKDIIHPLDYLCHNINRHVKKSELEHHHHHH” here?
Its protein production is “failed”.

For “MIMARTSNIFARVEPEVKEQAEQVLEQLGIPMSSAVSMFLKQVVLQRGIPFEMKLPKDTPPSYSSLTKEQFNAEIEKGMLDIEAGRTYPMKSVEEEMKRDYGLLEHHHHHH”, which protein production is on record?
The protein production was “not failed”.

Which protein production does the source give for “MIMASSAAASISMITLRNLSRNHQSHQSTFLGFSRSFHNQRISSNSPGLSTRARSTTSSTGGFFRTICSSSSNDYSRPTKIQELNVYEFNEGDRNSPAVLKLGKKPDQLCLGDLVPFTNKLYTGDLTKRIGITAGLCVLIQHVPEKKGDRFEASYSFYFGDYGHISVQGPYLTYEDTFLAITGGSGVFEGAYGQVKLRQLVYPTKLFYTFYLKGVAADLPVELTGKHVEPSKEVKPAAEAQATQPGATIANFTN” here?
The protein production was “failed”.

With “MIMHIPKSTYYHKWFIGATLVVPVLPLAAQTSPNLVFIMADQYRGDALGCLGKEPVKTPCLDHLASEGVLFTNAVSSYPVSSPARAMLMTGMYPLHNKVTGNCNSQTAPYGVELPQEARCWSDVLKDMNYRTGYIGKWHLDSPYKPYVDTYNNRGKVAWNEWCPPERRHGFEYWTAYGTYDYHLKPMYWDTTAPRDSFYYVNQWGPAYEADKAIEYIQTQKENKQPFALVVSMNPPHTGYELVPDKYKALYKDIDVEALCAHRPDIPAKGTEMGNYFRNNIRNYYACITGVDEQVGRIIETLKSNGLFENTIIVFTSDHGICMGAHNNAGKDIFYEEAMRIPMIISWPAKIKPRKDDHLMIAFADLYPSLLSLMGFRKEIPETVQTFDLSRHILGKSKKEVVQPYYYVQFDNHATGYRGLRTSTHTFAVHATNGKIDETVLFDRTKDPYQMDNIAGQSPRLVRQFNKQLKAWLLHTNDSFAHYLETVTKLEHHHHHH” as the sequence, how does the protein production read?
The protein production was “not failed”.

Which protein production does the source give for “MIMKISMAMCKQPLPPSPTLDFPPARFGPNMLTLNPYGPKDKVVVIMGATGTGKSRLSVDIATRFRAEIINSDKIQVHQGLDIVTNKITSEESCGVPHHLLGVLPPEADLTAANYCHMANLSIESVLNRGKLPIIVGGSNSYVEALVDDKENKFRSRYDCCFLWVDVALPVLHGFVSERVDKMVESGMVEEVREFFDFSNSDYSRGIKKAIGFPEFDRFFRNEQFLNVEDREELLSKVLEEIKRNTFELACRQREKIERLRKVKKWSIQRVDATPVFTKRRSKMDANVAWERLVAGPSTDTVSRFLLDIASRRPLVEASTAVAAAMERELSRCLVA” here?
The protein production was “failed”.

With “MIMSVCLPWLARCRRFLIVSLAFAMLLLGIWGTLPFSLSDHGTAIAALEDDRYDGNIFVVYAGNGSLVPPRLNLRESFERKLPVILVYYLDDSKDCKQYAFIVSRMQEFYGRVASIIPVSVDSIPDQKRFRRDEPGYYYSGGVPQTVILDKSGKKIFDAQGALKFEVVDDVLRDLFDLLPRSESMELKQRTYNEFNSELVD” as the sequence, how does the protein production read?
The protein production was “failed”.

With “MINKKTTSENRRILQIAVPSIISNITVPLLGLIDVTIVGHLGSPAYIGAIAVGGMLFNIIYWIFGFLRMGTSGMTSQAYGQHDLNEINRLLIRSVGVGLFIALCLLILQYPILNAAFTLIQTTEEVKQLATTYFYICIWGAPAMLGLYGFAGWFIGMQNSRFPMYIAITQNIVNIIASLSFVYLLDMKVAGVAAGTLIAQYAGFFMAILLYMRYYSTLRKRIVWKDIIQKQAMYRFFRVNRDIFFRTLCLVIVTMFFTSAGAAQGEVVLAVNTLLMQLFTLFSYIMDGFAYAGEALAGRYIGARNQTALRNTVNHLFYWGIGLSAAFTLLYAIGGKEFLGLLTNDVSVISSSDTYFYWALAIPLTGFSAFLWDGVFIGATATRQMLYSMLVASVSFFMIYYAFHNLLGNHALWLAFITYLSLRGIVQTFIGREIVKKAI” as the sequence, how does the protein production read?
The protein production was “failed”.

Which protein production does the source give for “MINKTLTVTLTSIAALAGLSGLANAQEYTNSTHTTSQQSNTYNSQVEQETNLGLTNKDIVKVKDGDTLYQIALSHHLSLEQLYNFNPGVTALIHPGDLIAVSEKGAAKLENKEINYAQTYAETTAFNQSDVVAQSVSASTTNVTGYNIVPTSAPTNTMHDSYHSSVNTPVSYQHVTTANQGNRYSFGNCTYYAFDRRQQLGRSIGSYWGNANNWAYSAKNAGLTVDNRPEVGAIFQTTAGYYGHVGVVEHVNQDGSVYVSEMNWNGHYNRVTNRTITNTSSYNFIH” here?
Its protein production is “failed”.
